Source: EP4644423A1 (Biyopharma Co., Ltd, dated 2025)
Changes are numbered by the printed parent chain.

T1: pituitary adenylate cyclase-activating polypeptide (PACAP) (UniProt P18509 132-169, not fully specified; biotin label in the ELISA of Example 3 (Biotin-PACAP; position not stated); unlabelled in the cAMP assay)
T1 construct: also called PACAP38; Biotin-PACAP
T1 peptide (looked up): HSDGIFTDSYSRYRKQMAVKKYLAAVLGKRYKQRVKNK

B1: A10-268-42 (VHH)
VHH: QVQLVESGGGLVQAGDSLRLSCAASGRTFSGYVMGWFRQAPGKEREFVAALRWSSSNTNYAASVKGRFTISRDYAKDTVYLQMNSLKPDDTAVYYCAAKRDRPYGSTWTPVAADYDTWGQGTQVTVSS
notes: Llama VHH with C-terminal 6xHis, expressed in 293 cells; also called B828603; 42wt
B2: A10-268-273 (VHH)
VHH: B1 VHH with Q1E, A14P, R19T, T28A, F29K, S30N, G31R, S128A
B3: A10-268-76 (VHH)
VHH: QVQLVESGGGLVPAGGSLNLSCAASGRTFSTYAMGWFRQAPGKEREFVATINWDNGRTYYADSVKGRFTISRDNAKNMVYLQMNSLKPEDTAVYYCAADKTAIFRTSVVPDDYDYWGQGTQVTVSS
notes: Llama VHH with C-terminal 6xHis, expressed in 293 cells; also called B828604
B4: A10-268-5 (VHH)
VHH: QVQLVESGGGLVQAGGSLRLSCAVSGRTVTTITMGWFRQAPGKEREFVASISWDGLSTGYQDSVKGRFTISRDNAKNTVYLQMNSLKPEDTAVYYCAAGDSLWSWSKVPANYAYWGQGTQVTVSS
notes: Llama VHH with C-terminal 6xHis, expressed in 293 cells; also called B828601
B5: A10-268-103 (VHH)
VHH: QVQLVESGGGLVQAGGSLRLSCVASGRTFSSYAMGWFRQAPGKEREFVSGITESGATTRYADSMRGRFIISRDNAQNTVYLEMNSLKPEDSAVYYCAASRFGITVPTAKGAYNYWGQGTQVTVSS
notes: Llama VHH with C-terminal 6xHis, expressed in 293 cells; also called B828605
B6: A10-268-18 (VHH)
VHH: QVQLVESGGGQVQAGGSLRLSCAASGRISSSYDMGWLRQAPGKEREFVARITWSGGSTYYADSVKGRFTISRDSTKKTVYLQMNSLKPEDTAVYYCAANRAFTGQYDYWGQGTQVTVSS
B7: A10-269-238 (VHH)
VHH: QVQLVESGGGLVQPGGSLRLSCAASGFTFGNYDMSWVRQAPGKGPEWVSGIAPAGTITRYADSVKGRFTISRDNAKNTLYLQMNSLKPEDTAVYRCAKGASWGQGTQVTVSS
notes: Llama VHH with C-terminal 6xHis, expressed in 293 cells; also called N220505106
B8: A10-269-385 (VHH)
VHH: EVQLVESGGGLVQAGGSLRVSCQASEISFSFHAMGWYRQAPGKQRELVARITSIGRTTYADFVKGRFTISRGNAKNTVYLQMNSLKPEDTAVYYCNAEPGRVNYEYWGQGTQVTVSS
notes: Llama VHH with C-terminal 6xHis, expressed in 293 cells; also called N220505107
B9: A10-269-165 (VHH)
VHH: QVQLVESGGGLVQAGGSLRLSCAASRTWFSIGAMGWYRQAPGKQRELVATITSGSSTTYADAVKGRFTVSRDNAENTVYLQMNSLKPEDTAVYYCYTKSRRKPWDLENDYWGQGTQVTVSS
notes: Llama VHH with C-terminal 6xHis, expressed in 293 cells; also called N220505103
B10: A10-269-56 (VHH)
VHH: EVQLVESGGGLVQAGGSLRLSCAASGSTFSGRYMGWFRQGQGKEREFVAASMWSGTAISYADSVKGRFTISRDNAKATMYLQMSSLKDEDTAVYYCAAGGLWNLKLSDAGYYEYWGQGTQVTVSS
notes: Llama VHH with C-terminal 6xHis, expressed in 293 cells; also called N220505101
B11: A10-269-172 (VHH)
VHH: EVQVVESGGGLVQAGGSLRLSCVSSESSFSINTMRWYRQAPGKERELVASINSASSTYYGDAVKGRFTISRVNAKNTVYLQMNSLKPEDTAVYFCNTHSVLASRDYWGQGTQVTVSS
notes: Llama VHH with C-terminal 6xHis, expressed in 293 cells; also called N220505104
B12: PAC1s ECD-Fc (Fc fusion)
chain: MHSDCIFKKEQAMCLEKIQRANELMGFNDSSPGCPGMWDNITCWKPAHVGEMVLVSCPELFRIFNPDQDMGVVSRNCTEDGWSEPFPHYFDACGFDEYESETGDQDYYYLSVKA
notes: C-terminus of PAC1s ECD fused to the N-terminus of Fc; also called PACs1 ECD-Fc; PACls ECD-Fc; not shown: Fc fused to the C-terminus of the ECD

Each binder was assayed against CGRP receptor on SK-N-MC cells (UniProt O60894 27-148; Q16602 23-461, limits assumed) (assay: cell-based or functional assay).
Sequence of CGRP receptor on SK-N-MC cells (O60894 27-148 limits assumed, chain 1 of 2): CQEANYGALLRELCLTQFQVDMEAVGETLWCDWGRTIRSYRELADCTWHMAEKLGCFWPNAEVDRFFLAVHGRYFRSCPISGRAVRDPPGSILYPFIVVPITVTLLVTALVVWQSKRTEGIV
Sequence of CGRP receptor on SK-N-MC cells (Q16602 23-461 limits assumed, chain 2 of 2): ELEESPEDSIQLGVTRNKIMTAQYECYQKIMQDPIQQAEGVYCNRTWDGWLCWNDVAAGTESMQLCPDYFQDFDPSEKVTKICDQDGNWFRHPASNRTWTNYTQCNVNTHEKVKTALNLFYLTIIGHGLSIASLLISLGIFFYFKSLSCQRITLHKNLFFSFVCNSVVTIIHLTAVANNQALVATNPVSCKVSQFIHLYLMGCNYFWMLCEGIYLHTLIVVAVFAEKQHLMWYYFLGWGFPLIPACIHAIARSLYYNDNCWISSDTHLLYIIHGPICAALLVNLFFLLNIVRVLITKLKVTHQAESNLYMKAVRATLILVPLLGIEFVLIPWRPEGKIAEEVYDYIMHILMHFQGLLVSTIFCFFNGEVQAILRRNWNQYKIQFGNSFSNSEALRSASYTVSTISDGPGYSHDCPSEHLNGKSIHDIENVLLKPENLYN

IC50 (nM), inhibition of CGRP-induced (5 nM) cAMP production in SK-N-MC cells	Binder
39.7 nM	B1
23.6 nM	B2
> 10000 nM	B3
> 10000 nM	B4
279 nM	B5
492 nM	B6

What follows are binders tested against T2, RC-Fc (human) (assay: ELISA, RC-Fc coated, VHH-His titrated, anti-His-HRP; Exp1).
T2 construct: Knob-in-hole heterodimer of the R chain and the C chain, human IgG1 Fc; expressed in 293 cells, purified on Protein A; also called RC-Fc fusion protein; reconstructed CGRP receptor extracellular region
T2 sequence (chain, as listed by the source limits assumed, chain 1 of 2): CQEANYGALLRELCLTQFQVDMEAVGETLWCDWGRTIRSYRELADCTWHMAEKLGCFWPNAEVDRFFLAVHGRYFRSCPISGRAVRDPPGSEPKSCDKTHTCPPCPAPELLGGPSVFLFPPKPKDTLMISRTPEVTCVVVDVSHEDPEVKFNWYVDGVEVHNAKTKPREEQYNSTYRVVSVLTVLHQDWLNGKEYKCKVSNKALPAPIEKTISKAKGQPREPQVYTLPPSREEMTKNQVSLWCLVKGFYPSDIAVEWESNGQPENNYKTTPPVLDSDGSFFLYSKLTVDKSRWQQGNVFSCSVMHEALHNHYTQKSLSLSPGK
T2 sequence (chain, as listed by the source limits assumed, chain 2 of 2): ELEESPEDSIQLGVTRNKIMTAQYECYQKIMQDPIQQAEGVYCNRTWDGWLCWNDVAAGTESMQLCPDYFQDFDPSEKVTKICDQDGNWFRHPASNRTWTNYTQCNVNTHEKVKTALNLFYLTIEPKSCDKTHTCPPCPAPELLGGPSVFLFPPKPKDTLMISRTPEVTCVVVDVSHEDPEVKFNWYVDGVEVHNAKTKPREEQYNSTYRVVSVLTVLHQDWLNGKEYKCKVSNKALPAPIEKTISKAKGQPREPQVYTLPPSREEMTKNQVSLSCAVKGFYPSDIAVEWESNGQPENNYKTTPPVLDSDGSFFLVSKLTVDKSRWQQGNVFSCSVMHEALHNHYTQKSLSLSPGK

EC50	binding result	Binder
0.091 nM		B7
0.052 nM		B8
0.025 nM		B1
0.024 nM		B3
0.143 nM		B4
0.097 nM		B9
0.372 nM		B5
	no binding	B10
0.056 nM		B11

These binders were tested against T2, RC-Fc (assay: ELISA, RC-Fc coated, VHH-His titrated, anti-His-HRP; Exp2).

EC50	Binder
0.073 nM	B7
0.073 nM	B8
0.15 nM	B1
0.144 nM	B3
0.184 nM	B4
0.057 nM	B9
0.114 nM	B5
0.051 nM	B11

The binders below were run against T2, RC-Fc (assay: ELISA, RC-Fc coated, VHH-His titrated, anti-His-HRP; Exp3).

EC50	Binder
0.081 nM	B7
0.061 nM	B8
0.021 nM	B1
0.028 nM	B3
0.08 nM	B4
0.48 nM	B9
0.265 nM	B5
0.042 nM	B11

What follows are binders tested against T2, RC-Fc (assay: ELISA, RC-Fc coated, VHH-His titrated, anti-His-HRP; average of Exp1-3).

EC50	Binder
0.082 nM	B7
0.062 nM	B8
0.065 nM	B1
0.065 nM	B3
0.136 nM	B4
0.211 nM	B9
0.25 nM	B5
0.05 nM	B11

Biological target: T1, pituitary adenylate cyclase-activating …
Test: ELISA, Biotin-PACAP on streptavidin plate, Fc fusion titrated, anti-human IgG-HRP

fold binding ability against PAC1 ECD-Fc	Binder
40 times that of PAC1 ECD-Fc	B12
